Test: soluble on expression in E. coli; label from the status in PepcDB or PDB records

Row | Sequence | soluble on expression in E. coli
1 | MGSDKIHHHHHHMRVPPHNLEAEVAVLGSILIDPSVINDVLEILSHEDFYLKKHQHIFRAMEELYDEGKPVDVVSVCDKLQSMGKLEEVGGDLEVAQLAEAVPSSAHALHYAEIVKEKSILRKLIEISRKISESAYMEEDVEILLDNAEKMIFEISEMKTTKSYDHLRGIMHRVFENLENFRERANLIEPGVLITGLPTGFKSLDKQTTGFHSSDLVIIAARPSMGKTSFALSIARNMAVNFEIPVGIFSLEMSKEQLAQRLLSMESGVDLYSIRTGYLDQEKWERLTIAASKLYKAPIVVDDESLLDPRSLRAKARRMKKEYDVKAIFVDYLQLMHLKGRKESRQQEISEISRSLKLLARELDIVVIALSQLSRAVEQREDKRPRLSDLRESGAIEQDADTVIFIYREEYYRSKKSKEESKLHEPHEAEIIIGKQRNGPVGTITLIFDPRTVTFHEVDVVHS | not soluble
2 | MAAVPELLEQQEEDRSKLRSVSVDLNVDPSLQIDIPDALSERDKVKFTVHTKTTLSTFQSPEFSVTRQHEDFVWLHDTLTETTDYAGLIIPPAPTKPDFDGPREKMQKLGEGEGSMTKEEFAKMKQELEAEYLAVFKKTVSTHEVFLQRLSSHPVLSKDRNFHVFLEYDQDLSVRRKNTKEMFGGFFKSVVKSADEVLFSGVKEVDDFFEQEKNFLINYYNRIKDSCAKADKMTRSHKNVADDYIHTAACLHSLALEEPTVIKKYLLKVAELFEKLRKVEGRVSSDEDLKLTELLRYYMLNIEAAKDLLYRRTKALIDYENSNKALDKARLKSKDVKLAETHQQECCQKFEQLSESAKEELINFKRKRVAAFRKNLIEMSELEIKHARNNVSLLQSCIDLFKNN | soluble
3 | MGKLVEGVWHDVWYDTKANGGKFVREDAGFRDWIKNDSEAVFQPESGRYHLYVSLACPWAHRTLIFRKLKGLEPHIDVTVVCPDMLSQGWQMGLPEPLFGHTRMHQIYTQAKPDYTGRVTVPVLWDKKTNTIVSNESSEIIRMFNSAFNDLTGNHDDYYPEPLRGVIDEWNDYIYPNVNNGVYRCGFATSQEAYEEAFESLFSALDKIDAHLATHRYLAGNKITEADWRLFTTLVRFDAVYVGHFKCNKQRIADYVNIQGYLKELYQIDGIADTTDFYHVKRHYYFSHTGINPTQVVPKGPDLDFSSPHQREMIG | soluble
4 | MTRIISIVSGKGGTGKTTVTANLSVALGEMGRKVLAVDGDLTMANLSLVLGVDDVNITLHDVLAGDAKLEDAIYMTQFENVYILPGAVDWEHVIKADPRKLPEVIKSLKGKYDFILIDCPAGLQLRAMSAMLSGEEAILVTNPEISCLTDTMKVGMVLKKAGLAILGFILNRYGRSERDIPPEAAQDVMDVPLLAVIPEDPVIREGTLEGIPAVKYKPESKGAQAFIKLAEEVDKLAGIKAKI | soluble
5 | MTLLRVGGVPEPFNEIFMQAQEGALPSTKLQVEFLGVAGGSGAALEMLAKCELDVAVTLTESAVARTKAAASGLAVHSVYVASPLAWGVAVSSKKTDWTDLNSLDAAVLRGESIRAGFSRRGSGSHLLLSVFASDRGWISTGIQNDILKSFECGSFDGLIQAAVAGDIDMFLWETCFTKECAATRQGLIRLVGEYAPSWPAFVLVCRDDAHVRAAVSELKREIEPLQRKFCTGEGLDILQNKYGFSLESAKLWLSRLQFAEPDEALSAEQWRSVERALELTAGSRSSSR | soluble
6 | MVITKHFAIHGKSYRRKLIKYILNPEKTNNLALVSDYGMKNFLDFPSYEEMVQMYHENFISNDTLYDFRHDRMEENQRKIHAHHIIQSFSPEDHITPEQINRIGYETVKELTGGKFRFIVATHVDKDHLHNHIIINSVDSNSDKKLKWDYKVERNLRMISDRFSKIAGAKIIENRYSHQRYEVYRKTNHKYELKQRLYFLMEHSRDFEDFKKNAPLLHVEMDFRHKHATFFITDSTMKQVVRGKQLNRKQPYTEEFFKNYFAKREIESLMEFLLLKVENMDDLLQKAKLFGLTINPKQKHVSFQFAGVEVKETELDQKNLYDVEFFQDYFKNRKDWQAPETEDFVQLYQEEKLSKEKELPSDEKFWESYQEFKSNRDAVHEFEVELSLNQIEKVVDDGIYVKVKFGIRQEGLIFVPNMQLDMEEDKVKVFIRETSSYYVYHKDAAEKNCYMKGRTLIRQFSYENQTIPLRRKATVDMIKEKIAEVDALIELEVENQSYVTIKDELVHELAASELRINELQERMSTLNQVAEYLLASVESKQEMKLNLSKLNITENISANIVEKKLKSLGNQLELERGRYEKMVVRLDKFINRLNTGLSKGDGIDFQK | not soluble
7 | MGSDKIHHHHHHMAAKIITVFNQKGGCGKTTVSMHLAGTLGLRGARSMLVDMDEQGTATRWAAQASDERPFPASVIGLAPSGGAMHREVRKFVQDYDYIVVDCPPAVHSAAPSSALLISDLAIIPVVPSPPDLWAAVAAKTLAQHAQVQNETLLIRVMANMVQRRVSIARQAIEILGDDGEVPLLNSMIGSRSAFRECQAIGCTVHGVAGAREAVQEVDMMVDEVLSLIEH | not soluble
8 | MAHHHHHHMAFNQRFDRGAQPSYAAVQLPPGWQMAYSVEGEVYYIDHNTRTTHWKIPQEVLNEMYHQGQTYRPSRSRRGIDRSKMKTKMCMNIQNGGKCTWGNACAFAHSSEELAAVPHNGGGQRMRMDPGAHQGNDNGLDNNHLQQ | soluble
9 | MVRIIVKNVSKVFKKGKVVALDNVNINIENGERFGILGPSGAGKTTFMRIIAGLDVPSTGELYFDDRLVASNGKLIVPPEDRKIGMVFQTWALYPNLTAFENIAFPLTNMKMSKEEIRKRVEEVAKILDIHHVLNHFPRELSGAQQQRVALARALVKDPSLLLLDEPFSNLDARMRDSARALVKEVQSRLGVTLLVVSHDPADIFAIADRVGVLVKGKLVQVGKPEDLYDNPVSIQVASLIGEINELEGKVTNEGVVIGSLRFPVSVSSDRAIIGIRPEDVKLSKDVIKDDSWILVGKGKVKVIGYQGGLFRITITPLDSEEEIFTYSDHPIHSGEEVLVYVRKDKIKVFEKN | soluble
10 | PTSLEKLPSADVKGQDLYKTQPPRSDAQGGKAYLKWICITCGHIYDEALGDEAEGFTPGTRFEDIPDDWCCPDCGATKEDYVLYEEK | soluble
11 | MGSDKIHHHHHHMTRRPPLINRLGATPVHPERDPAHPLVVFGDNRFCAGELLDVQKMAGPHMHSQIELNFVLEGSMTYWFDGRELTISEGRLCLFWGMIPHQVIDRREGTRFICLYVPMSVFLGLASLSQFRDSVFRGAVIEALHLRAWDREIFLRWRDELLGGDEGDIEIVRSELTARLMRIERDGWRDLREQGSALASLGQRDAGWMLHVEKMLRFIGEHAPDTISAEDVGRAAGLHPNYAMSLFKRAVGTTINQAIIRHRLDTAQSLLISSDMPITEVAYESGFGSLSTFYEAFQRRFMEKPVQYRRRMRAKGTAAQSIA | not soluble
12 | MGHHHHHHSHMCNGSFTEKLKLLFKLHIPPAYTEVKSKDASKGDELSKEELLYFSQLHVSKPANEKEAESAKHSPEKGKGKIDIQAYLSQWQDELFKKEENIKDLPRMNQSQFIQFSKTLYNLFHEDPEEESLYQAIAVVTSLLLRMEEVGRKLHSPTSSAKGFSGTVCGSGGPSEEKTGSHLEKDPCSFREEPQWSFAFEQILASLLNEPALVRFFEKPIDVKAKLENARISQLRSRTKM | soluble
13 | MGHHHHHHSHKPDEDDANRLGEKVILREQVKELFNEKYGEALGLNRPVLVPYKLIRDSPDAVEVTGLPDDIPFRNPNTYDIHRLEKILKAREHVRMVIINQLQPFAEICNDAKVPAKDSSIPKRKRKRVSEGNSVSSSSSSSSSSSSNPDSVASANQISLVQWPMYMVDYAGLNVQLPGPLNY | not soluble
14 | MSAFTPASEVLLRHSDDFEQSRILFAGDLQDDLPARLDTAASRAHTQQFQHWQVLSRQMGDNARFSLVATADDVADCDTLIYYWPKNKPEAQFQLMNLLSLLPVGTDIFVVGENRSGVRSAEQMLADYAPLNKVDSARRCGLYFGRLEKQPVFDADKFWGEYSVDGLTVKTLPGVFSRDGLDVGSQLLLSTLTPHTKGKVLDVGCGAGVLSVAFARHSPKIRLTLCDVSAPAVEASRATLAANGVEGEVFASNVFSEVKGRFDMIISNPPFHDGMQTSLDAAQTLIRGAVRHLNSGGELRIVANAFLPYPDVLDETFGFHEVIAQTGRFKVYRAIMTRQAKKG | not soluble
15 | MSLEFGRELPGKRDPQARLKDYKELYLDFSATQIKNQAARCMNCGVPFCHSGCPLGNIIPEFNDAVYRNDWEEAAEILFSTNNFPEFTGRICPAPCEASCVLGINKPPVTIENIEKSIVETAFEKGILKPNPPKKRTGKTVAVVGSGPAGLAAAAQLNSAGHTVTVFERADQVGGLLRYGIPDFKLEKWVIDRRVKLMEEEGVIFKTNTNVGVTVKAKDIVKEFDAVVLTGGSTVGRDLPIPGRQFKGVHFAMEFLSQQNKRVANIKPEIDHTGEAYKNGDLLATAKNVVVIGGGDTGSDCVGTSNRHGAKSVLQFELMPKPPENKNETTPWPNWPMILRTSTSHEEGCDRLWSITTKEFIGDADGNLTGLKIAEMGWVTAPDSKLPKYQELPGTERVIPCELTLLAMGFLHPQHAGMLNELGVEYDERGNIKANGKYQTNVDKVFTAGDMRRGQSLVVWAISEGREAARNVDIFLMGTTSLEAKDHGMLDTVYAEGHHHHHH | soluble
16 | ALNQMNNLMTQEATGLKILCAPDKDSSFVIYEDDGETMDYANGGYLKTVLDIKAGEQTVLSFRNEGEYETAVEDIYLDVIHREKAPYWVKADGHELPHFLHRKKFEAAQEGWYYSQSLKSVQIKYKNPKKDYEVIVSFEQFDMIGM | not soluble
17 | MNLHVKTLSLMTWRSRFLEESFWSLEETAALAKQLPLKSPSENIFLHIVDLSDPKQIWKFVENFKQEHKLHVLINNAGCMVNKRELTEDGLEKNFAANTLGVYILTTGLIPVLEKEHDPRVITVSSGGMLVQKLNTNDLQSERTPFDGTMVYAQNKRQQVVLTERWAQGHPAIHFSSMHPGWADTPDRNEQELRKVVGEAQTASPLPRFLEIMMHEGKCQPQGHSSNDLEACWSSGGGEQNSLPDWPHQLHDLRQLTWALCSSFLLYKQGN | not soluble
18 | MFEHLCNIDDMTIIGQRSNPLNEDWNEWTLVICTKCKKVYEWQHHSEEQMHGGDLAITAIATDDYLHHKYNINEQDIPQILNKKKKIRRYDRYKKIYLEDYV | not soluble
19 | SNAMSELSYRRILLKLSGEALMGDGDYGIDPKVINRLAHEVIEAQQAGAQVALVIGGGNIFRGAGLAASGMDRVTGDHMGMLATVINALAMQDALEKLGAKVRVMSAIKINDVCEDFIRRRAIRHLEKGRIAIFAAGTGNPFFTTDSGAALRAIEIGADLLLKATKVDGVYDKDPKKHSDAVRYDSLTYDEVIMQGLEVMDTAAFALARDSDLPLRIFGMSEPGVLLRILHGAQIGTLVQGRS | soluble
20 | MAGGGAGDPGLGAAAAPAPETREHLFKVLVIGELGVGKTSIIKRYVHQLFSQHYRATIGVDFALKVLNWDSRTLVRLQLWDIAGQERFGNMTRVYYKEAVGAFVVFDISRSSTFEAVLKWKSDLDSKVHLPNGSPIPAVLLANKCDQNKDSSQSPSQVDQFCKEHGFAGWFETSAKDNINIEEAARFLVEKILVNHQSFPNEENDVDKIKLDQETLRAENKSQCCLEHHHHHH | not soluble
21 | MSLELPAEVQEMPIYREWISGILAGKIASPFWEMAQPQKNQHCLDIGCGVSFLIYPWRDWQAFFYGQDVSNVARDTLNSRGSQLNSKLFKGVELGAAHQLKYTLSYFDLAIATGFSCYFPLEYWTSVLQAVKRVLKPDGHFVFDILNAAHPQAEDWAVLETYLGAEVFLEPVTEWEKIINAAGAKVVGRQPGEFFDLYKLRLEHHHHHH | soluble
22 | METSMRYTSNSKSMKIHAKEKVPVNSKTHLQLHGELDTGTGAPSYFCAMIRHFFPEASTGLGVGLHYDKRQKLRCLVRGKKEFPVRADKRVTFNIKGRCDIDQDLNQKNPKGAAEFAWNIMDFKEDQDVRIKVGYEMFDKVPYMQIRENNWTLNANMKGKWNLRYDL | not soluble

— the DeepSol protein solubility set
